Columns and labels:
[1] = molecular target: T1, TAF1 tandem bromodomain (BD1-BD2) (human, UniProt P21675 1402-1656); test: EMSA; settings: EMSA: 50 mM HEPES pH 7.5, 100 mM NaCl, 35 nM DNA, 1 h at 4 C, 6% native PAGE, 0.5x TBE, 100 V on ice. HeLa mononucleosome pulldown (undefined DNA) not listed.
T1 sequence: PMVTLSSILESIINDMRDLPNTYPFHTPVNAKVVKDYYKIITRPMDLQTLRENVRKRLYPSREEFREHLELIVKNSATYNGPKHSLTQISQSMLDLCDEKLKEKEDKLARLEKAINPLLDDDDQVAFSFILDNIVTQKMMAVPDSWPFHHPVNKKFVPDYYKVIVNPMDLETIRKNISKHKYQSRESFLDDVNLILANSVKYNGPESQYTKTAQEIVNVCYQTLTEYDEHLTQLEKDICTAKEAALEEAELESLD

[2] = molecular target: Histone H4 H4K5acK12ac peptide (Homo sapiens) (UniProt P62805); settings: cited from earlier work
[3] = molecular target: Histone H4 H4K8acK16ac peptide (Homo sapiens) (UniProt P62805); settings: cited from earlier work
[4] = molecular target: TAF1 tandem bromodomain BD1 triple mutant (R1435S/K1436S/R1437S), 6xHis-tagged (human); test: pull-down; 20 μg hyperacetylated HeLa mononucleosomes (cells treated with trichostatin A) mixed with 50 μM 6xHis-tagged TAF1 tandem bromodomain or its mutant, 4°C, 60 min; captured on Ni-NTA agarose; washed with 50 mM HEPES pH 7.5, 500 mM KCl, 2 mM EDTA, 0.1% Tween-20; eluted with 500 mM imidazole; western blot with anti-H4K5ac and anti-H4K8ac
[5] = molecular target: T1, TAF1 tandem bromodomain (BD1-BD2); test: EMSA; no peptide; EMSA: 50 mM HEPES pH 7.5, 100 mM NaCl, 35 nM DNA, 1 h at 4 C; 6% native PAGE, 0.5x TBE, 100 V on ice. HeLa mononucleosome pulldown (undefined DNA) not listed.; settings: protein: recombinant; tags: C-terminal 6xHis; label: none (SYBR Gold stain); blunt

147 bp Widom 601 DNA
Kd ([1]; 320 uM H4(1-15)K5acK12ac peptide): 19.7 µM
Kd ([1]; no peptide): 16.8 µM

TAF1 tandem bromodomain (from UniProt P21675)
Kd [2]: 1.4 µM
Kd [3]: 5.3 µM

acetylated mononucleosomes isolated from HeLa cells (from UniProt P62805 1-103) (complex)
fold decrease in binding against wildtype [4]: 1.5 fold

B1: 147 bp GC-rich 601 DNA (AT-tracts mutated to GC) (dsDNA)
DNA 1: CTGGAGAATCCCGGTGCCGAGGCCGCTCGACTGGTCGTAGACAGCTCTAGCACCGCTCAGACGCACGTACGCGCTGTCCCCCGCGTTTCAGCCGCCAAGGGGACTGCTCCCTAGTCTCCAGGCACGTGTCAGATGCGTACATCCTGT
DNA 2: ACAGGATGTACGCATCTGACACGTGCCTGGAGACTAGGGAGCAGTCCCCTTGGCGGCTGAAACGCGGGGGACAGCGCGTACGTGCGTCTGAGCGGTGCTAGAGCTGTCTACGACCAGTCGAGCGGCCTCGGCACCGGGATTCTCCAG
Kd [5]: 34.2 ± 5.4 µM

From PMC12599243, “Mechanistic insights into DNA binding by BD1 of the TAF1 tandem bromodomain module”
